Results as given in patent US20060110789A1, “Methods to mediate polyketide synthase module effectiveness” (priority 2002, published 2006).
One block for each substance: values may come before it.

Assays:
[1] = molecular target: (5)M6+TE (module 6 of DEBS with the N-terminal linker of module 5, with thioesterase) (UniProt Q03133); experiment: cell-based or functional assay
[2] = molecular target: (5)M5+TE (module 5 of DEBS with its own N-terminal linker, fused to thioesterase) (UniProt Q03133); experiment: cell-based or functional assay
[3] = molecular target: (5)M3+TE (module 3 of DEBS with the N-terminal linker of module 5, fused to thioesterase) (UniProt Q03132); experiment: estimated from the saturation curve of the rate of tetraketide formation against (5)M3+TE concentration at fixed 0.5 µM M2(4) (kinetic, in solution)
[4] = molecular target: (3)M5+TE (module 5 of DEBS with the N-terminal linker of module 3, fused to thioesterase) (UniProt Q03133); experiment: cell-based or functional assay
[5] = molecular target: (5)M2+TE (module 2 of DEBS with the N-terminal linker of module 5, fused to thioesterase) (UniProt Q03131); experiment: cell-based or functional assay
[6] = molecular target: M3+TE (module 3 of DEBS with its own N-terminal linker, fused to thioesterase) (UniProt Q03132); experiment: estimated from the saturation curve of the rate of tetraketide formation against M3+TE concentration at fixed M2 (kinetic, in solution)

- k60 µM [1]: 0.53 min⁻¹
Substance: diketide-NovH(4) (NovH fused to the C-terminal linker of DEBS module 4, loaded with diketide) (from UniProt Q03132 3489-3567)

- Kd [3]: 2.1 µM
Substance: M2(4) (module 2 of DEBS with the C-terminal linker of module 4) (from UniProt Q03131 1982-3404; Q03132 3489-3567) (enzyme)

- k60 µM (FIG. 29 B) [4]: 0.27 min⁻¹
- k60 µM, fold decrease against diketide-ACP4(4) with the same module [1]: 10 fold
- k60 µM (FIG. 29 A) [2]: 0.49 min⁻¹
- k60 µM, fold decrease against diketide-ACP4(4) with the same module [5]: 10 fold
Substance: diketide-ACP4(Ø) (DEBS ACP4 without linker, loaded with diketide) (from UniProt Q03132 3398-3488)

The next lines start with the substance.

Substance: diketide-ACP2(4) (DEBS ACP2 with the C-terminal linker of module 4, loaded with diketide) (from UniProt Q03131 3320-3408; Q03132 3489-3567)
- k60 µM, fold decrease against the matched reaction (FIG. 28 C) [2]: 20 fold

Substance: diketide-ACP4(4) (DEBS ACP4 with its natural C-terminal linker, loaded with diketide) (from UniProt Q03132 3398-3567)
- k60 µM, fold decrease against the matched reaction (FIG. 28 B) [4]: 20 fold
- maximal rate of elongation of 4a, fold increase against the NAC thioester 2a [2]: > 40 fold

Substance: M2 (module 2 of DEBS with its natural C-terminal linker) (from UniProt Q03131 1982-3404; Q03131 3408-3491) (enzyme)
- Kd [6]: 1.1 µM
